# The RNAGym collection of RNA variant scans (doi:10.1073/pnas.2313332121)
# B1: TPR t1 (parent)
# chain: GACCAAUCUGCCCUCAGAGCUCGAGAACAUCUUCGGAUGCAGAGGAGGCAGGCUUCGGUGGCGCGAUAGCGCCAACGUCCUCAACCUCCAAUGCAUCCCACCACAUGAUGAUGCCUGAAGAGCCUUGGUUUUUUG
# Variants of: B1
# Assay: polymerase ribozyme fitness, log enrichment relative to wild type (log ratio); higher = more active; in vitro selection for triplet polymerase activity
# Outline: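 Only genotypes with ≥10 input reads and ≥1 read per output were kept after Illumina sequencing of input and output libraries. These libraries were PCR-built, transcribed mutants of each subunit of a heterodimeric triplet polymerase ribozyme, each put through one triplicate in vitro selection round with frozen incubation at −7 °C, gel excision of extended constructs, streptavidin-bead capture and RT-PCR. Fitness is a logarithmic ratio of genotype enrichment to wild-type enrichment, from inverse-variance-weighted replicate averages, with the logarithm in base 2.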
row,Variant,polymerase ribozyme fitness (log ratio)
1,GCCCAAUCUGCCCUCAGAGCUCGAGAACAUCUUCGGAUGCAGAGGAGGCAGGCCUCGGUGGCGCGAUAGCGCCAACGUCCUCAACCUCCAAUGCAUCCCACCACAUGAUAAUGCCUGAAGAGCCUUGGUUUUUUG [A2C U54C G110A],-3.04
2,GGCCAAUCUGCCCUCAGCGCUCGAGAACAUCUUCGGAUGCAGAGGAGGCAGGCUUCGGUGGCGCGAUAGCGCCAACGUCCUCAACCUCCACUGCAUCCCACCACAUGAUGAUGCCUGAAGAGCCUUGGUUUUUUG [A2G A18C A91C],-2.93
3,GCCCAAUCUGCCCUCAGAGCUCGAGAACAUCUUCGGAUGCAGAGGAGGCAGGCUUCGGUGGCGCGAUAGCGCCAACGUCCUCAACCUCCAAUGCAUCCCACCACAAGAUGAUGCCUGAAGAGCCUUGGUUUUUUG [A2C U106A],-1.44
4,GCCCAAUCUGCCCGCAGAGCUCGAGAACAUCUUCGGAUGCAGAGGAGGCAGGCGUCGGUGGCGCGAUAGCGCCAACGUCCUCAACCUCCAAUGCAGCCCUCCACAUGAUGAUGCCUAAAGAGCCUAGGGUUUUUG [A2C U14G U54G U96G A100U G117A U126A U129G],-5.8
5,GGCCAAUCUGACCUCAGAGCUCGAGAACAUCUUCGGAUGCAGAGGAGGCAGGCUUGGGUGGCGCGAUAGCGCCAACGUCCUCAACCUCCAAUGCAUCCCACCACAUGAUGAUGCCUGAAGAGCCUUGGUUUUUUG [A2G C11A C56G],-1.58
6,GGCCAAUCUGCUCUCAGAGCUCGAGAACAUCUUCGGAUGCAGAGGAGGCAGGCUUCGGUGGCGCGAUAGCGCCAACGUCCUCAACCUCCAAUGCAUCCCACCACAUGAUGAUGCCUGAAGAGCCUUGGUUUUUUG [A2G C12U],-0.378
7,GGCCAAUCUGCCCUCAGAGCUCGAGAUCAUCUUCGGAUGCAGAGGAGGCAGGCUUCGGUGGCGCGAUAGCGCCAACGUGCUCAACCUCCAAUGCAUCCCACCAUAUGAUGAUGCCUGAAGAGCCUUGGUUUUUUG [A2G A27U C79G C104U],-4.76
8,GGCCAAUCUGCCCUCAGAGCUCGAGAACGUCUUCGGAUGCAGAGGAGGCAGGCUUCGGUGGCGCGAUAGCACCAACGUCCUCAACCUCCCAUGCAUCCCACCACAUGAUGAUGCCUGAAGAGCCUUGGUUUUUUG [A2G A29G G71A A90C],-3.65
9,GCCCAAACUUCCCUCAGAGCUCGAGAACAUCUUCGGAUGCAGAGGAGGCAGGCUUCGGUGGCGCGAUAGCGCCAACGUCCUCAACCUCCAAUGCAUCUCACCACAUGAUGAUGCCUGAAGAGCCUUGGUUUUUUG [A2C U7A G10U C98U],-4.07
10,GCCCAAUCUGCCCUCAGAGCUCGAGAACAUCUACGGAUGCAGAGGAGGCAGGCUUCGGUGGCGCGAUAGCGCCAACGUCCUCAACCUCCAAUGCAUACCACCACAAGAUGAUGCCUGAACAGCCUAGGUUUUUUG [A2C U33A C97A U106A G120C U126A],-6.8
11,GGCCAAUAUGCCCUCAGAGCUCGAGAACAUCUUCGGAUGCAGAGGAGGCAUGCUUCGGGGGCGCGAUAGCGCCAACGUCCUCAACCUCCAAUGCAUCCCACCACAUGAUGAUGCCUGAAGAGCCUUGGUUUUUUG [A2G C8A G51U U59G],-2.18
12,GGCCAAUCUGCCCUCAGUGCUCGAGAACGUCUUCGGAUGCAGAGGAGGCAGGCUUCGGUGGCGCGAUAGCGCCAACGUCCUCAACCUCCAAUGCAUCCCACCAGAUGAUGAUGCCUGAAGAGCUUUGGUGUUUUG [A2G A18U A29G C104G C124U U130G],-4.82
13,GGCCAAUCUGCCCUCAGAGCUCGAGAACAUCUUCGGAUGCAGAGGAGGCAGGCUUCGGUGGCGCGAUGGCGCCAACGUCCUCAACCUCCAAUGCAUCCCACCACAGGAUGAUGCCUGAAGAGCCGUGGUUUUUUG [A2G A68G U106G U125G],-5.29
14,GGCCAAUCUGCCCUCAGUGCUCGAGAAGAUCUUCGGAUGCAGAGGAGGCAGGCUUCGGUGGCGCGAUAGCGCCAACGUCCUCAACCUCCAAUGCAUCCCACCACAUGAUGAUGCCUGAAGAGCAUUGGUCUUUUG [A2G A18U C28G C124A U130C],-5.83
15,GGCCAAUCUGCCCUCAGAGCUCGAGAACAUCUUCGGAUGCAGAGGAGGCAGGCUUCGGUGGCGCGAUAGCGCCUACGUCCUCAACCUCGAAUGCAUCCCACCACAUGAUGAAGCCUGAAGAGCCUUGGUUUUUUG [A2G A74U C89G U112A],-1.32
16,GGCCAAUCUGCGCUCAAAGCUCGAGAACAUCUUCGGAUGCAGAGGAGGCAGGCCUCGGUGGCGCGAUAGCGCCAACGUCCUCAACCUUCAUUGCAUCCCAUCACUUGAUGAUGGCUGAAGAGCCUUGGUUUUUUG [A2G C12G G17A U54C C88U A91U C101U A105U C114G],-5.19
17,GGCCAAUCUGCGCUCAGAGCACGAGAACAUCUUCGGAUGCAGAGGAGGCAGGCUUCGGUGGCGCGAUAGCUCCAACGACCUCAACCUCCAAUGCAUCCCACCACAUGAUGAUGCCUGAAGUGCCUUGGUUUUUUG [A2G C12G U21A G71U U78A A121U],0.758
18,GCCCAAGCUGCCCUCAGAGCUCGAGAACAUCUUCGGAUGCAGAGGAGGCAGGCUUCUGUUGCGCGAUAGCGCCAACGUCCUCAACCUCCAAUGCAUCCCACCACAUGAUGAUGCCUGAAGAGCCUUGGUUUUUUG [A2C U7G G57U G60U],-0.82
19,GCCCAAUCUGCCCUCAGAGCUCGAGAACAUCUUCGGAUGCAGAGGAGGCAGGCUUCGGUGGCGCGAUAGCGCCAACGUCCUCAACCUCCAAUGCAUCCCACCACAUGAUAAUGCCUGAAGCGCCUUGGUUUUUUG [A2C G110A A121C],-2.66
20,GCCCAAUCUGCCCUCAGAGCUCGAGAACAUCUUCGGAUGCAGAGGAGGCAGGCUUCGGGGGCGCGAUAGCGCCAACGUCCUCAACCUCCAAUGCAUCCCACCACAUGAUGAUGCCUGAAGAGCCUUGGUUUUUUG [A2C U59G],-1.54
21,GCCCAAUCUGCCCUCAGAGCUCGAGAACAUCUUCGGAUGCAGAGGAGGCAGGCUUCGGCGGCGCGAUAGCGCAAACGUCCUCAACCUCCAAUGCAUCCCACCACAUGAUGAUGCCUGAAGAGCCUUGGUUAUUUG [A2C U59C C73A U131A],-2.5
